For this assay, the target named is AcrE1 with a C-terminal 6×His tag (Pseudomonas phage JBD5). In words: SEC; purified AcrE1 CHis; single peak; elution volume compared with a standard curve to estimate the native molecular mass.

One may read the stoichiometry N as a count of units in the complex or per binding partner. In the case of “AcrE1 with a C-terminal 6×His tag (natural protein)”, the stoichiometry N is 2.

These data come from PMC5727412.
